Assay results published in patent US20240226314A1 (Sanofi, published 2024).
Values joined by “and” are separate entries in the source; they are usually repeats but may differ in a detail not shown here. Equal entries are not always repeated. Where two headings read alike, the source gives them in different places.

T1: His-tagged cynomolgus monkey TfR ectodomain (cyTFRC_89_760; mature protein) (cynomolgus monkey (Macaca fascicularis), UniProt Q5RDH6 89-760 (Pongo abelii entry))
T1 construct: also called cTfR; cTfR ectodomain
T1 chain: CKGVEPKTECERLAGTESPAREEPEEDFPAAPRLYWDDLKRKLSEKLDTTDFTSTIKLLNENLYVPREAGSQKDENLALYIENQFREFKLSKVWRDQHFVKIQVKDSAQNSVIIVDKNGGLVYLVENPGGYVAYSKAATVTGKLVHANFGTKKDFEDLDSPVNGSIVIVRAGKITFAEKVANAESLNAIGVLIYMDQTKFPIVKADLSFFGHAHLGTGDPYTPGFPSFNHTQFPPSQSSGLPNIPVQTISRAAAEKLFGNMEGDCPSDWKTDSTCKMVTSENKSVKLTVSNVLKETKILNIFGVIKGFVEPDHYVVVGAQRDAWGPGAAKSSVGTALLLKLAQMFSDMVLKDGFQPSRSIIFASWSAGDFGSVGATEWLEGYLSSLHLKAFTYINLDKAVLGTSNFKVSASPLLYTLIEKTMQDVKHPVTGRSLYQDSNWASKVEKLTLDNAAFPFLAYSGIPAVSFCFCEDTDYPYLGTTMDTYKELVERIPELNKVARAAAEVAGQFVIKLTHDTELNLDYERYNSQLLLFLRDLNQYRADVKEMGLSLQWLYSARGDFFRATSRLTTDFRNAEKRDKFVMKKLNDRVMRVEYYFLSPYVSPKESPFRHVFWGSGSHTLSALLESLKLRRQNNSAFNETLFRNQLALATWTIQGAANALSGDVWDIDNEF

B1: cTfR: AviTag fused in the N-terminus of the ectodomain of cTfR (amino acid residues 90 to 760 of SEQ ID NO: 2) (receptor)
chain: GSHHHHHHHHGGGGSLNDIFEAQKIEWHGSKGVEPKTECERLAGTESPAREEPEEDFPAAPRLYWDDLKRKLSEKLDTTDFTSTIKLLNENLYVPREAGSQKDENLALYIENQFREFKLSKVWRDQHFVKIQVKDSAQNSVIIVDKNGGLVYLVENPGGYVAYSKAATVTGKLVHANFGTKKDFEDLDSPVNGSIVIVRAGKITFAEKVANAESLNAIGVLIYMDQTKFPIVKADLSFFGHAHLGTGDPYTPGFPSFNHTQFPPSQSSGLPNIPVQTISRAAAEKLFGNMEGDCPSDWKTDSTCKMVTSENKSVKLTVSNVLKETKILNIFGVIKGFVEPDHYVVVGAQRDAWGPGAAKSSVGTALLLKLAQMFSDMVLKDGFQPSRSIIFASWSAGDFGSVGATEWLEGYLSSLHLKAFTYINLDKAVLGTSNFKVSASPLLYTLIEKTMQDVKHPVTGRSLYQDSNWASKVEKLTLDNAAFPFLAYSGIPAVSFCFCEDTDYPYLGTTMDTYKELVERIPELNKVARAAAEVAGQFVIKLTHDTELNLDYERYNSQLLLFLRDLNQYRADVKEMGLSLQWLYSARGDFFRATSRLTTDFRNAEKRDKFVMKKLNDRVMRVEYYFLSPYVSPKESPFRHVFWGSGSHTLSALLESLKLRRQNNSAFNETLFRNQLALATWTIQGAANALSGDVWDIDNEF
modifications: site-specific biotinylation on N-terminal Avitag
notes: Immobilised on streptavidin probes for BLI; also called biotinylated cTfR ectodomain
B2: 531v25Fab-FcOL (other)
heavy: QVQLVQSGAEVKKPGASVKVSCKASGYTFTRYYLNWVRQAPGQGLEWIGMIDPSVSETHYAQKFQGRATLTVDKSTSTAYMELSSLRSEDTAVYYCSQIRLPYYYAMDSWGQGTTVTVSSASTKGPSVFPLAPSSKSTSGGTAALGCLVKDYFPEPVTVSWNSGALTSGVHTFPAVLQSSGLYSLSSVVTVPSSSLGTQTYICNVNHKPSNTKVDKKVEPKSCDKTHTCPPCPAPELLGGPSVFLFPPKPKDTLMISRTPEVTCVVVDVSHEDPEVKFNWYVDGVEVHNAKTKPREEQYNNASRVVSVLTVLHQDWLNGKEYKCKVSNKALPAPIEKTISKAKGQPREPQVCTLPPSRDELTKNQVSLSCAVKGFYPSDIAVEWESNGQPENNYKTTPPVLDSDGSFFLVSKLTVDKSRWQQGNVFSCSVMHEALHNRFTQKSLSLSPG
light: not shown
chain: DKTHTCPPCPAPELLGGPSVFLFPPKPKDTLMISRTPEVTCVVVDVSHEDPEVKFNWYVDGVEVHNAKTKPREEQYNNASRVVSVLTVLHQDWLNGKEYKCKVSNKALPAPIEKTISKAKGQPREPQVYTLPPCRDELTKNQVSLWCLVKGFYPSDIAVEWESNGQPENNYKTTPPVLDSDGSFFLYSKLTVDKSRWQQGNVFSCSVMHEALHNHYTQKSLSLSPG
notes: Monovalent heterotrimer; It has a full IgG1 heavy chain (NNAS, hole, RF), a kappa light chain and an Fc polypeptide (knob) that dimerizes with the heavy chain

Tests used:
[1] = target: T2, anti-TfR 531v25-Fab-FcOL-GAA; experiment: BLI (Octet), biotinylated AviTag-TfR ectodomain on streptavidin probes, 1:1 global fit
T2 construct: Monovalent Fab-FcOL with GAA fused to the C-terminus of the Fc polypeptide
Source text: (§1) A 1:1 binding model with global fitting was applied after double subtraction for buffer and probe analyte interaction with a 0-90 second association and 0-60 dissociation window.

[2] = target: B1; experiment: BLI; KD on cTfR against KD on hTfR
Source text: as §1

[3] = target: B1; experiment: BLI (Octet), biotinylated AviTag-TfR ectodomain on streptavidin probes, 1:1 global fit
Source text: as §1

[4] = target: T3, hTfR: AviTag fused to the N-terminus of the ectodomain of human TfR (residues 90 to 760 of SEQ ID NO: 1) (human, UniProt P02786 90-760, site-specific biotinylation on N-terminal Avitag); experiment: as above
T3 construct: also called biotinylated hTfR ectodomain
Source text: as §1

[5] = target: T3, hTfR: AviTag fused to the N-terminus of …; experiment: BLI, immobilised hTfR pre-saturated with 500 nM human holo-transferrin (competitor)
Source text: as §1, with “window. […] A 1:1 binding model with global fitting was applied after double subtraction for buffer and probe analyte interaction.” for “window.”

[6] = target: T3, hTfR: AviTag fused to the N-terminus of …; experiment: BLI, immobilised AviTag-hTfR ectodomain, no saturation
Source text: as §1, with “window. […] A 1:1 binding model with global fitting was applied after double subtraction for buffer and probe analyte interaction.” for “window.”

[7] = target: B1; experiment: BLI (Octet), biotinylated AviTag-TfR ectodomain on streptavidin probes, 1:1 global fit
Source text: as §1

[8] = target: T3, hTfR: AviTag fused to the N-terminus of …; experiment: as above; remark: listed apart in the source
Source text: as §1

[9] = target: T4, His-tagged human TfR ectodomain (hTFRC_89-760_G142S; mature protein) (human, UniProt P02786 89-760); experiment: SPR, His-tagged TfR ectodomain captured on anti-His, 1:1 fit
T4 construct: It carries the G142S haplotype; also called hTfR ectodomain
Protocol: (§2) Binding of the humanized Fab variants to human, cynomolgus and mouse TfR was assessed using SPR at pH 7.4. Experiments were run on a Bruker MASS-2 instrument with HBS-EP+ as running buffer and sample diluent (Cytiva Life Sciences, #BR100826). HCA sensor chips (Bruker, #1862614) were immobilized with anti-His antibody (His capture kit, Cytiva Life Sciences, #28995056) following manufacturer's instructions. About 10,000 RU of anti-His was obtained. His-tagged hTfR ectodomain (SEQ ID NO: 39), cTfR ectodomain (SEQ ID NO: 40) or mouse TfR ectodomain (SEQ ID NO: 41) (5 μg/ml) was captured for 1 min at 10 μL/min. Concentration series of the humanized Fab variants were then injected for 4 min at 30 μL/min over hTfR surfaces and dissociation was monitored for 5 min. Surface was regenerated with one 1 min pulse of 10 mM glycine-HCl at pH 1.5.

[10] = target: T1, His-tagged cynomolgus monkey TfR …; experiment: as above
Protocol: as §2

[11] = target: B1; experiment: BLI; KD on cTfR against KD on hTfR
Source text: as §1

Row | Binder | Kd [1] | Cynomolgus/human KD ratio [2] | Kd [3] | Kd [4] | Kd [5] | Kd [6] | Kd [7] | Kd [8] | Kd [9] | Kd [10] | Cynomolgus/human KD ratio [11]
1 | B1 | 69.9 nM | – | – | – | – | – | – | – | – | – | –
2 | B2 | – | 4.7 | 103 nM | 22.1 nM | 44 nM | 22.1 nM | 103 nM | 22.1 nM | 11.8 nM and 15 nM and 8.5 nM | 124 nM and 140 nM and 109 nM | 4.7
